Results from paper doi:10.1101/2025.05.20.655083, “Importin α/β1 dependent nuclear import of Black Sea Bass Polyomavirus Large Tumor Antigen is mediated by a classical NLS located downstream of the SF3 helicase domain” (bioRxiv, 2025).
Where no end group is shown, it is not given here. The star is where a group is joined. FITC = O=C1OC2(c3ccc(O)cc3Oc3cc(O)ccc32)c2ccc(NC(=S)*)cc21; Ahx = NCCCCCC(=O)O

Tests used:
Test in all cases: native gel or EMSA; 1.5% agarose gel in TB buffer (0.45 mM tris, 0.45 mM boric acid, pH ~8.5), 2 hours at 75 V; recombinant IMPs 20 μM, FITC peptides 10 μM; peptides seen with a UV filter, proteins by Coomassie staining
Conditions in all cases: both partners purified
[1] = molecular target: T1, human importin β3 (human, UniProt O00410 1-1097)
T1 construct: human importin β3; In pET30a with His tag and TEV site; no cleavage step is described in the purification; also called hIMPβ3; IMPβ3; source: E. coli BL21(DE3)pLysS, purified (HisTrap, Superdex 200 SEC)
T1 sequence (looked up): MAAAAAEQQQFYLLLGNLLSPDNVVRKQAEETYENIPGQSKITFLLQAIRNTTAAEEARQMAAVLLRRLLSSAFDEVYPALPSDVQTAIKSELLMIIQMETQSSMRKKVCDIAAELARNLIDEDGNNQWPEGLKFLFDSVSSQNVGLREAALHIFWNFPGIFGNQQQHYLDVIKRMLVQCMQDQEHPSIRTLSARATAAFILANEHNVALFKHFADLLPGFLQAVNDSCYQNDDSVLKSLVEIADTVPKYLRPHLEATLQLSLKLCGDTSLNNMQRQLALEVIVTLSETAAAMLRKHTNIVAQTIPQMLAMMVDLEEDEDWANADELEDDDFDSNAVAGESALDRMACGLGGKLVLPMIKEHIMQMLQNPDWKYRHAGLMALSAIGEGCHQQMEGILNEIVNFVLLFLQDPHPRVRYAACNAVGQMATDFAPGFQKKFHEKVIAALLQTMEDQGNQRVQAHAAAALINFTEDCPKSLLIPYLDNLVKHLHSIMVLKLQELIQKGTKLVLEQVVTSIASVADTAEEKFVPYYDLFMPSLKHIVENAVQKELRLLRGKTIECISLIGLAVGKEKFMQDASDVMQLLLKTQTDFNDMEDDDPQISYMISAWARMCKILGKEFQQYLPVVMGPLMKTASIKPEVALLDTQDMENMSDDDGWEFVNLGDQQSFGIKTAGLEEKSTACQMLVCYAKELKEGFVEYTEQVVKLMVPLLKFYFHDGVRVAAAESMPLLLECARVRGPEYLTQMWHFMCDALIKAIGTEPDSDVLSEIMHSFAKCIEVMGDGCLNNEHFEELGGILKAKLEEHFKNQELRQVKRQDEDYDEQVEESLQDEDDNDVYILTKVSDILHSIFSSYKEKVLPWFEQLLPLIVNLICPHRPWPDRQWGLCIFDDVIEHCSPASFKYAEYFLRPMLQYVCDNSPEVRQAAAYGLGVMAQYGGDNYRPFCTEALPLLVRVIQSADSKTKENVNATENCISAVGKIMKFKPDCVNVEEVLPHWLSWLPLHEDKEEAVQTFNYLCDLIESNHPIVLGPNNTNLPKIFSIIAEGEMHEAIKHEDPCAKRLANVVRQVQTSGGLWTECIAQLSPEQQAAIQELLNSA

[2] = molecular target: T2, human importin β2 (human, UniProt Q92973 1-898)
T2 construct: human importin β2; In pET30a with His tag and TEV site; no cleavage step is described in the purification; also called hIMPβ2; IMPβ2; source: E. coli BL21(DE3)pLysS, purified (HisTrap, Superdex 200 SEC)
T2 sequence (looked up): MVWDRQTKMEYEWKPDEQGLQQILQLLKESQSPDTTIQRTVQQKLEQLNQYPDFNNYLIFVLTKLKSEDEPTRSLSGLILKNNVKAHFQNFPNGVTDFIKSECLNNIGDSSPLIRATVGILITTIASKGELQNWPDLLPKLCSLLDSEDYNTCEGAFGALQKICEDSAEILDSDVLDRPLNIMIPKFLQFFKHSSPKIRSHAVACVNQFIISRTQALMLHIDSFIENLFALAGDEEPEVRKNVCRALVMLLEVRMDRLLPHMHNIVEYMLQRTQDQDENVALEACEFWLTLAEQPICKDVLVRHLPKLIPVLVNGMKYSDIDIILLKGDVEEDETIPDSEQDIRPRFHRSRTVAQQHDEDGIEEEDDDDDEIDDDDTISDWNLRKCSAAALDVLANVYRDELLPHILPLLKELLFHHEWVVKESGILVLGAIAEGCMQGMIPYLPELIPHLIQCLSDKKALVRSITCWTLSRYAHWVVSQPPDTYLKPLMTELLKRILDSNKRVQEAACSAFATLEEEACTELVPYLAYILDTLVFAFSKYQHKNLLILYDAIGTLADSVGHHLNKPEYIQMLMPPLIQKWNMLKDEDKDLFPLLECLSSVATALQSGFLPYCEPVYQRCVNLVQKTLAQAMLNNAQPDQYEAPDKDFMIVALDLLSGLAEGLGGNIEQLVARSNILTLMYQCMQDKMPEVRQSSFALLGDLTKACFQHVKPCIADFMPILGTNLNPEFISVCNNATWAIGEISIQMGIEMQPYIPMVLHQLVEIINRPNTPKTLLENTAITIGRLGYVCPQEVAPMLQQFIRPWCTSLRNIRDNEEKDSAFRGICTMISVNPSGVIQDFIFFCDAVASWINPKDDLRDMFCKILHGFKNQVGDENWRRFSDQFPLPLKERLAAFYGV

[3] = molecular target: T3, human importin β1 (human, UniProt Q14974 1-876)
T3 construct: human importin β1; In pMCSG21 with His tag and TEV site; no cleavage step is described in the purification; also called hIMPβ1; IMPβ1; source: E. coli BL21(DE3)pLysS, purified (HisTrap, Superdex 200 SEC)
T3 sequence (Q14974 whole entry): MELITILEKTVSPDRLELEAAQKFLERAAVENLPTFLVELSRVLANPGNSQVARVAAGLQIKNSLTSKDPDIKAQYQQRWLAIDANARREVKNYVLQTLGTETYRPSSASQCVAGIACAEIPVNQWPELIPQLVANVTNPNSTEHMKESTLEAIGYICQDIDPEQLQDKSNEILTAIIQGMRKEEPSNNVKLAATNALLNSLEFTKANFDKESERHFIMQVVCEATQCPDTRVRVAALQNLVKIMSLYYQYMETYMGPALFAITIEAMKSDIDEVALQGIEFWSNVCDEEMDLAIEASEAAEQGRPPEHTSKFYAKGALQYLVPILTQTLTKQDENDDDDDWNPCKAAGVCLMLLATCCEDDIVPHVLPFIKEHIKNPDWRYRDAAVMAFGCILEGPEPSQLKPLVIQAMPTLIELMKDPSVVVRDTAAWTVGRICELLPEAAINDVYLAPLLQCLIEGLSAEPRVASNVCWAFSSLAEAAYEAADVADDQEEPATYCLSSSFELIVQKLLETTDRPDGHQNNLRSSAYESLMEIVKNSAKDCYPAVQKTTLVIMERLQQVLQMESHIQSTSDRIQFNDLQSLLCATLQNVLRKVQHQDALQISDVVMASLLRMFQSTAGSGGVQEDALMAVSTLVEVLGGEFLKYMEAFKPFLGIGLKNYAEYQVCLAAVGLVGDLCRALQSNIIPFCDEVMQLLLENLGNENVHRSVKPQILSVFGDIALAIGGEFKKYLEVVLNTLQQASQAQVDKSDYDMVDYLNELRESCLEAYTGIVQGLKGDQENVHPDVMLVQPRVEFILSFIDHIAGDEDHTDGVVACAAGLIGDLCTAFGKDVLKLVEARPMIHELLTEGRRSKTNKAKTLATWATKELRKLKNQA

Measured: binding result

B1: BSB PyV-LTA;NLS peptide (Black Sea Bass polyomavirus large tumor antigen residues 660-683) (peptide)
peptide: {FITC-Ahx}-IAEYKRRHNIGSDGLPNKRRRCLF
notes: also called BSB PyV-LTA 660-683; BSBPyV LTA FITC-NLS peptide
binds: all assays above
